Results published in the nanobody polyreactivity screen of Harvey et al. (2022).

Assay: yeast display, Sf9 membrane polyspecificity reagent, FACS + sequencing; frameworks hold sequencing errors
Summary of the method: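 Galactose induction of a Saccharomyces cerevisiae BJ5465 synthetic nanobody display library ran 36–48 hours. The cells were then stained for 1 hour at 4 °C with 10% biotinylated, detergent-solubilized Sf9 membrane reagent, pulled down on streptavidin microbeads and FACS-sorted into low and high (top ~1%) gates on expression and reagent-binding fluorescence. Labels for polyreactivity follow the gate of origin.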

| Sequence | polyreactivity (PSR sort gate) |
| --- | --- |
| QFQLVESGGGLVQAGGSLRLSCAASGLILQNYVMGWYRQAPGKERELVAAITRSGGGTYYADSVKGRFTISRDNAKNTVYLQMNSLKPEDTAVYYCAAQRQYGKFDYWGQGTQVTVSS | high polyreactivity |
| QVQLVESGGGLVQAGGSLRLSCAASGLTFDPYAMGWYRQAPGKEREFVATITTSGDSTYYADSVKGRFTISRDNAKNTVYLQMNSLTPEDTAVYYCNTQSRTLGWPLDYWGQGTQVTVSS | high polyreactivity |
| QVQLVESGGGLVQAGGSLRLSCAASGSTLDRYVMGWYRQATGKERELVAAISRNGGSTYYADSVKGRFTISRDNAKNTVYLQMNSLIPEDTAVYNCARYAGFPYTQGDYWGQGTQVTVSS | high polyreactivity |
| QVQLVESGGGLVQAGGSLRLSCAASGSILSVNAMGWYRQAPGKERELVAAINWSGGSTYYADSVKGRFTISRDNAKNTVYLQMNSLKPEDTAVYYCAARWRYSYVGDFDYWGQGTQVTVSS | high polyreactivity |
| QVQLVESGGGLVQAGGSLRLSCAASGSTFIRNAMGWYRPAPGKERELVAAISSSGGRTYYADSVKGRFTISRDNAKNTVYLQMNSLKPEDTAVYYCAARNARYVHTMEYWGQGTQVTVSS | high polyreactivity |
| QVQLVESGGGLVQAGGSLRLSCAASGGIFPFYAMGWDRQAPGKERELVAVITSSGGSTFYSDSVKGRFTISRDNAKNTVYLQMNSLKPEDTAVYYGNARRVSREIWYGATGNDYWGQGTQGTVSS | low polyreactivity |
| QVQLVESGGGLVQAGGSLRLSCAASGRTFRYYAMGWYRQTPGKERELVATISKSGGSTYYADSVKGRFTISRDNAKNTVYLQMNSLKPEDTAVYYCATSKSYSAFDYWGQGTQVTVSS | high polyreactivity |
| QVQLVESGGGLVQAGGSLRLSCAASGCIFTYNTMGWYRQAPGKERELVAAISGRGGRTYYADSVKGRFTISRDNAKNTVYLQMNSLKPEDTAVYYCNARKYSQKIYGNYNYWGKGTQVTVSS | high polyreactivity |
| PVQLVESGGGLVQAGGSLRLSCAASGFTFDENAMGWYRQAPGITYSGASTYYADSVKGPYTISRANAQNTVYLQMNSLKPEDTAVYYCAAEVVAQMNYWGQGTQVTVSS | low polyreactivity |
| QVQLVESGGGLVQAGGSLRLSCAASGRTFSYYAMGWYRQAPGKERELVAAISSGGSTNYADSVKGRFTISRDNAKNTVYLQMNSLKPEDTAVYYCATSSIWGSGRVRWVTYYYWGQGTQVTVSS | low polyreactivity |
| QVQLVESGGGLVQAGGSLRLSCAASGAIFGFYAMGWYRQAAGKERELVADITFSVGSTNYADSVKGRFTISRDNAKNTVYLQRNSLKPEDTAVYYCAVANVYYEGYDYWGQGTQVTVSS | low polyreactivity |
| QVQLVESGGGLVQAGGSLRLSCAASGVIFGAYAMGWYRQAPGKERELVAAISSRGTSTYYADSVKGRFTISRDNAKNTVYLQMNSLKPEDTAVYYCNVYYIPLRRYDYWGQGTQVTVSS | high polyreactivity |
| QVQLVESGGGLVQAGGSLRLSCAASGSTFALYAMGGSRPAPGKERELVAVINSGGSTYYADSVKGRFTISRDNAKNTVYLLMNSLKPEDTAVSYCATVYVWAYRGTDSSYRFDYWGKGTQVTVSS | low polyreactivity |
| QVQLVESGGGLVQAGGSLRLSCAASGIIFYYYAMGWYSPAPGKERELVAAISSGGSTYYADSVKGRFTISRDNAKNTVYLQMNSLKPEDTAVYYCAADPLYTIDIEYSTYGDFDYWGQGTQVTVSS | low polyreactivity |
| QVQLVESGGGLVQAGGSLRLSCAASGSIFLYNAMGWYRPAPGKERELVAAISKSGGSTYYADSVKGRFTISRDNAKNTVYLQMNSLKPEDTAVYYCAAGYGRRIRYGSEYDYWGQGTQVTVSS | low polyreactivity |
| QVQLVESGGGLVQAGGSLRLSCAASGRTSGFNTMGWYRQAPGKERELVAAISFSGGSTYYADSVKGRFTISRDNAKNTVYFQMNSLKPEDTAVSYCNALFRYLYRSGDYWRQGTQVTVSS | low polyreactivity |
| QLQLQESGGGLVLAGGSLRLSCSASGNISVYGSMCWYRQAPGKEREFVATIDPGTNTNYADSVKDRFTISRDNAKNTVYLQMNSLKPEDTAVSYCAVEAGSDWPYRYRGQGTQVTVSS | low polyreactivity |
| QVQLVESGGGLVQAGGILRLSCAASGSTFPFYAMGWYRQAPGKVRELVASINSDGSTNYADSVKGRFTISRDNAKNTVYLQMNSLKPEDTAVYYCAAGWQTRFYSRYYYWGQGTQVTVSS | high polyreactivity |
| QVQLVESGGGLVQAGGSLRLSCAASGSIFEHNSMGWYSQAPGKERELGAAITISGGGTYYADSVKGRFTISRDNAKNTVYLQMNSLKPEDTAVYYCNRDKPGLVFTSYNYSSSYDYWGPGTQVTVSS | low polyreactivity |
| QVQLVESGGGLVQAGGSLRLSCAASGRIFKYYAMGWYRQAPWKERELVDTIRRSGGSTYYADSVKGRFTISRDNAKNTVYLQMNSLKPEDTAVYYCNARYLFLQAWLRPYRSDYWGQVTQVTVSS | high polyreactivity |
| QVQLVESAGGLVQAGGRLRLSCAAYGFTFNKYAMGWSRQAPGKEREVVAYISSGDRTYYADSVKGRFTISRDNAKNTVYLQMNSLKPEDTAVYYCNAPYRIILENNNYWGHGTQVTVSS | high polyreactivity |
| QDQLEESALGLVQAGGSLRLICAASGRTFQYYTMAWYRPAPAKEREFVAAIRDSGGSTYYADSVKGRFTISRDNAKNTVYLQMNSLKPEDTAVYYCNKVPNGPSNYDYWGQGTQVTVSS | high polyreactivity |

| Sequence | polyreactivity (PSR sort gate) |
| --- | --- |
| QVQLVESAGGLVQAGGSLRLSCDASGSTIDEYDMGWYRQAPGKERELVAAISDRGSRTRYADSVKGRFTISRDNAKNTVYLQLNSLKPEDTAVDYCNADIYVNYWDFDYWGQGTQVTVSS | high polyreactivity |
| QVQLVESGGGLVQAGGSLRLICAASGIIFGNNAMGRYRQAPGKERELVAAIRWSTGTTYYADSVKGRFTISRDNATNTVYLQMNSLKPEDTAVYYCAARLRREYGYWGQGTQVTVSS | high polyreactivity |
| QVQLVESGGGLVQAGGSLRLSCAASGSIFGVNTMGWYRQAPGKERELVAAISSGGNTHYADSVKGRFTISRDNAKNTVYLQMNSLKPEDTAVYYCAAAYVGIYYVSRRRWERYYYWGQGTQVTVSS | high polyreactivity |
| QVQIVESGRGLVQAGGSLRVSCAASGRTFTYNAMGWYRQAPGKERELVAAINGDGGSTYYADSVKVRFTISRDNAKNTVYLQMNSLKPEDTAVYYCNRPRIYRYGYWGQGTQVTVSS | high polyreactivity |
| QVQLVESGGGLVQAGGSLRLSCAASGRTFSRNAMGWYRQAPGKERELVASISRSGASTYYADSVKGRFTISRDNAKNTVYLQMNSLKPEDTAVYYCNADVYSTYYNYNYWVQGTQVTVSS | high polyreactivity |
| QVQLVESAGGLVQAGGSLSLSCAASGYTYWYAMGWYRQAPGKERELVAAIDSGVTRTYYADSVKGRFTISRDNAKNTVYLQMNSLKPEDTAVYYCAAGLSTDYGYWGQGTQVTVSS | low polyreactivity |
| QVQLVASGGGLVQAGGSLRLSCAASGSTFTQNAMGWDRPAPGQEREVVAAISWSGARTYYADSVKGRFTISRHNAKNTVYLQMNSRKPEDPAVYDCNNYARKRGTTYDYWGHGTQVTVSS | high polyreactivity |
| QVQLVESGGGLLQAGGSLRLSCAASGYTFASNAMGWYRQAPGKERELVAAITRGGSTNYADSVKGRFTISRDNAKNTVYLQMNSLKPEDTAVYYCAAPRYRHTRKGGYWGQGTQLTVSS | low polyreactivity |
| QVQLVESGGGLVQAGGSLRLSCAASGRIFGVYAMGWYRQAPGKERELVADISWSGSGTYADSVKGRFTISRDNAKNTVYLQMNSLKPEDTAVYYCNVDPAQIHSGYVGYDYWGQGTQVTVSS | low polyreactivity |
| QVQLVESGGGLVQAGGSLRLSCAASGSTFDVNTMGWYRQAPGKERELVAAISSSGGDTYYADSVKGRFTISRDNAKNTVYLQMNSLKPDDTAVYYCAARLGFYTYGYTSWYTVYYWGQGTQVTVSS | low polyreactivity |
| QVQLVESGGGLVQAGGSLRLSCAASGFIFACYAMAWYRQAPGKERELVATISSSGARTYYADSVKGRFTISRDNAKNTVYLQMNSLKPEDTAVYYCSAAGRYRPVSPYSGYNYWGQGTQVTVSS | high polyreactivity |
| QVQLVESGGGLVQAGGSLRLSCAASGRTFRVYAMGWYRQAPGKERELVAAISWSGGTTYYADSVKGRFTISRDNAKNTVYLQMNSLKPEDSAVYYCARRSRGSSYNYWGQGTQVTVSS | high polyreactivity |
| QVQLVESGGGLVQAGGSLRLSCAASGIIFGRYARGWYRQAPGKDRELVATISYRGGRTNYADSVKGRFTISRDNAKNTVYLQSNSLKPEDTAVYDCAAPHFSYSGGTHDYWGQGTQVTVSS | high polyreactivity |
| QVHLVDSGGGLVQAGGSLRLSCAASGFIFSKYAMGWYRQAPGKERELVAAISWNGGSTYYADSVKGRFTISRDNAKNTVYLQMNSLKPEDTAVYYCNARGRYRKSERRAFDYWGQGTQVTVSS | high polyreactivity |
| QVQLVESGGGLVQAGGSLRLSCAASGSIYPDYDMGWYRQAPGKERELVAAISSSGDSTYYADSVKGRFTISRDNAKNTVYLQMNSLKPEDTAVYYCAVDGTRSTSNGSEFTGYNYWGQGTHVTVSS | low polyreactivity |
| QVQLVESGGGLVQAGGSLRLSCAASGSTFDGNAMGWYRQAPGKERELVAGISYRGGSTYYADSVKGRFTISRDNAKNTVYLQMNSLKPEDTAVYYCAADDYGYWLFDYWGQGTQVTVSS | low polyreactivity |
| QVQLVESGGGLVQAGGSLRLSCAASGSIFPVNAMGWYRQAPGKERELVAAISEGSTSTYYADSVKGRFTISRDNAKNTVYLQMNSLKPEDTAVYYCAADYDTGYEYWGQGTQVTVSS | low polyreactivity |
| QVQLVESGGGLVQAGGSLRLSCAASGSIRYYAMGWYRQAPVKEREFVAAISRRGSSTNYADSVKGRFTISRDNAKNTVYLQMNSLKPDDTAVYYCARGLDVISYGYDYWGQGTQVTVSS | high polyreactivity |
| QVQLVESGGGLVQAGGSLRLSCAASGSIFGVYVMGWYRQAPGKERELVAAITRGASTNYADSVKGRFTISRDNAKNTVYLQMNSLKPEDTAVYYCAADGWYSAVGVWLEYDYWGQGTQVTVSS | low polyreactivity |
| QVQLVESGGGLVQAGGSLRLSCAASGIIFYDYAMGWYRPAPGKERELVAAINYSGGSTYYADSVKGRFTISRDNAKNTVYLQMNSLKPEDTAVYYCAADNAVWEYDYWGQGSQVTVSS | low polyreactivity |
| QVQLVESGGGLVQAGGSLRLSCAASGRILPRNAMGRYRQAPGKEREVVAGIYSDGSTNYADSVKGRFTISRDNAKNTVYLQMKSLKPEETAVYYCAKQFSSYQYFIILISPGDYWGQGTQVTVSS | low polyreactivity |
